According to paper PMC3964903:

Molecular target: calcium/calmodulin-dependent protein kinase II (CaMKII) (mouse (endogenous in hippocampal slices)) (UniProt P11798)
Sequence of UniProt P11798 (P11798 whole entry): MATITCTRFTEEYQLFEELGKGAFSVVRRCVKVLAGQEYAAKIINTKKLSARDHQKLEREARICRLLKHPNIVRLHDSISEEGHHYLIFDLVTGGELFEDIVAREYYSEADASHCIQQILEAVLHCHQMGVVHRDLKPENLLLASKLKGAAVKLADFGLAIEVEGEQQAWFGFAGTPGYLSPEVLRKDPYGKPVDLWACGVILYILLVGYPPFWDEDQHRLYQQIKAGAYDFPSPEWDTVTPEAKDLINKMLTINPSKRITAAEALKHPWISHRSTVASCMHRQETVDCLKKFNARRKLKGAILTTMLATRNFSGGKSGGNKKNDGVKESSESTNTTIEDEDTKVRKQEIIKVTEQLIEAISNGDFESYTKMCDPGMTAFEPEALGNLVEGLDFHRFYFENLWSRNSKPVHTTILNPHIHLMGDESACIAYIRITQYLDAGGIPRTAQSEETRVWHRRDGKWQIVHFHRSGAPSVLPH

NMDA receptor (NMDAR) (from UniProt P35438 19-938; Q01097 27-1482) (complex)
CaMKII relative activity (Cyclex CaMKII assay kit) after 10 min OGD with Tat-GluN2B, compared with control (relative to control): 0.97 | amplitude of NMDAR-mediated i-LTP (NMDA fEPSPs) in hippocampal slices exposed to OGD for 10 min with Tat-GluN2B, compared with OGD alone (relative to OGD): 0.73
